These results are taken from PMC9888277.

The labels stand for the following.
B1: wild-type KHNYN-GFP [human] / ZAP-L (zinc finger antiviral protein, long isoform) [modified: C-terminal S-farnesylation; C-terminal S-farnesylation] [human (endogenous in HeLa)] (parent)
chain 1: MPTWGARPASPDRFAVSAEAENKVREQQPHVERIFSVGVSVLPKDCPDNPHIWLQLEGPKENASRAKEYLKGLCSPELQDEIHYPPKLHCIFLGAQGFFLDCLAWSTSAHLVPRAPGSLMISGLTEAFVMAQSRVEELAERLSWDFTPGPSSGASQCTGVLRDFSALLQSPGDAHREALLQLPLAVQEELLSLVQEASSGQGPGALASWEGRSSALLGAQCQGVRAPPSDGRESLDTGSMGPGDCRGARGDTYAVEKEGGKQGGPREMDWGWKELPGEEAWEREVALRPQSVGGGARESAPLKGKALGKEEIALGGGGFCVHREPPGAHGSCHRAAQSRGASLLQRLHNGNASPPRVPSPPPAPEPPWHCGDRGDCGDRGDVGDRGDKQQGMARGRGPQWKRGARGGNLVTGTQRFKEALQDPFTLCLANVPGQPDLRHIVIDGSNVAMVHGLQHYFSSRGIAIAVQYFWDRGHRDITVFVPQWRFSKDAKVRESHFLQKLYSLSLLSLTPSRVMDGKRISSYDDRFMVKLAEETDGIIVSNDQFRDLAEESEKWMAIIRERLLPFTFVGNLFMVPDDPLGRNGPTLDEFLKKPARTQGSSKAQHPSRGFAEHGKQQQGREEEKGSGGIRKTRETERLRRQLLEVFWGQDHKVDFILQREPYCRDINQLSEALLSLNF
chain 2: MADPEVCCFITKILCAHGGRMALDALLQEIALSEPQLCEVLQVAGPDRFVVLETGGEAGITRSVVATTRARVCRRKYCQRPCDNLHLCKLNLLGRCNYSQSERNLCKYSHEVLSEENFKVLKNHELSGLNKEELAVLLLQSDPFFMPEICKSYKGEGRQQICNQQPPCSRLHICDHFTRGNCRFPNCLRSHNLMDRKVLAIMREHGLNPDVVQNIQDICNSKHMQKNPPGPRAPSSHRRNMAYRARSKSRDRFFQGSQEFLASASASAERSCTPSPDQISHRASLEDAPVDDLTRKFTYLGSQDRARPPSGSSKATDLGGTSQAGTSQRFLENGSQEDLLHGNPGSTYLASNSTSAPNWKSLTSWTNDQGARRKTVFSPTLPAARSSLGSLQTPEAVTTRKGTGLLSSDYRIINGKSGTQDIQPGPLFNNNADGVATDITSTRSLNYKSTSSGHREISSPRIQDAGPASRDVQATGRIADDADPRVALVNDSLSDVTSTTSSRVDDHDSEEICLDHLCKGCPLNGSCSKVHFHLPYRWQMLIGKTWTDFEHMETIEKGYCNPGIHLCSVGSYTINFRVMSCDSFPIRRLSTPSSVTKPANSVFTTKWIWYWKNESGTWIQYGEEKDKRKNSNVDSSYLESLYQSCPRGVVPFQAGSRNYELSFQGMIQTNIASKTQKDVIRRPTFVPQWYVQQMKRGPDHQPAKTSSVSLTATFRPQEDFCFLSSKKYKLSEIHHLHPEYVRVSEHFKASMKNFKIEKIKKIENSELLDKFTWKKSQMKEEGKLLFYATSRAYVESICSNNFDSFLHETHENKYGKGIYFAKDAIYSHKNCPYDAKNVVMFVAQVLVGKFTEGNITYTSPPPQFDSCVDTRSNPSVFVIFQKDQVYPQYVIEYTEDKACVIS

The experiment covers variants of B1. Put plainly: co-immunoprecipitation (GFP IP, immunoblot for endogenous ZAP, quantified). The following applies: with ZAP-L (zinc finger antiviral protein, long isoform) [modified: C-terminal S-farnesylation, HeLa cell lysates, N = 3, parent: 1, read off a plot.
With chain 1 L676Q F678E, the ratio to parent is 0.38.
